From patent publication US20180030149A1 (AVEO PHARMACEUTICALS, published 2018) come the findings set out here.

To fix the notation:
B1: Sh24C05-1 (antibody, human IgG1, kappa)
heavy: not shown
light: DIQMTQSPSSLSASLGERVSLTCRASQEISGYLSWLQQKPDGTIKRLIYAASTLDSGVPKRFSGSRSGSDYSLTIGSLESEDLADYYCLQYDSYPYTFGGGTKLEIKRTVAAPSVFIFPPSDEQLKSGTASVVCLLNNFYPREAKVQWKVDNALQSGNSQESVTEQDSKDSTYSLSSTLTLSKADYEKHKVYACEVTHQGLSSPVTKSFNRGEC
notes: Chimeric: mouse 24C05 variable regions, human IgG1/kappa constant regions; also called Chimeric 24C05
B2: Sh24C05-25 (antibody, human IgG1, kappa, V domains shown)
VH: QVQLVESGGGLVKPGGSLRLSCAASGFTFSDYAMSWIRQAPGKGLEWVSTISDGGTYTYYPDNVKGRFTISRDNAKNSLYLQMNSLRAEDTAVYYCAREWGDYDGFDYWGQGTLVTVSS
VL: DIQMTQSPSSLSASVGDRVTITCRASQEISGYLSWFQQKPGKAPKSLIYAASTLDSGVPSRFSGSGSGTDFTLTISSLQPEDFATYYCLQYDSYPYTFGQGTKLEIKR
notes: Humanized, human IgG1/kappa
B3: Sh24C05-17 (antibody, human IgG1, kappa, V domains shown)
VH: B2 VH with L11V, K13Q, G16R, I37V, S49A, A75S, S78T, N84S
VL: B2 VL with F36L, K42G, P44I, S46R, T69S, F71Y
notes: Humanized, human IgG1/kappa
B4: Sh24C05-40 (antibody, human IgG1, kappa, V domains shown)
VH: B2 VH with Q1E, V5L, K13Q, I37V, A75S, S78T
VL: B2 VL with M4L, S10F, F36Y, S46L, D70E
notes: Humanized, human IgG1/kappa
B5: Sh24C05-42 (antibody, human IgG1, kappa)
heavy: not shown
light: DIQLTQSPSFLSASVGDRVTITCRASQEISGYLSWYQQKPGKAPKLLIYAASTLDSGVPSRFSGSGSGTEFTLTISSLQPEDFATYYCLQYDSYPYTFGQGTKLEIKRTVAAPSVFIFPPSDEQLKSGTASVVCLLNNFYPREAKVQWKVDNALQSGNSQESVTEQDSKDSTYSLSSTLTLSKADYEKHKVYACEVTHQGLSSPVTKSFNRGEC
notes: Humanized, human IgG1/kappa
B6: Sh24C05-31 (antibody, human IgG1, kappa, V domains shown)
VH: B2 VH
VL: B2 VL with F36Y, S46R, D70E
notes: Humanized, human IgG1/kappa
B7: Sh24C05-47 (antibody, human IgG1, kappa, V domains shown)
VH: B2 VH with L11V, K13Q, G16R, I37V, S49A, A75S, S78T, N84S
VL: B2 VL with F36Y, S46L
notes: Humanized, human IgG1/kappa
B8: Sh24C05-44 (antibody, human IgG1, kappa)
heavy: not shown
light: B5 light with L4M, F10S, E70D
notes: Humanized, human IgG1/kappa
B9: Sh24C05-49 (antibody, human IgG1, kappa, V domains shown)
VH: B2 VH
VL: B2 VL with F36Y, S46L
notes: Humanized, human IgG1/kappa
B10: Sh24C05-43 (antibody, human IgG1, kappa, V domains shown)
VH: B2 VH
VL: B2 VL with M4L, S10F, F36Y, S46L, D70E
notes: Humanized, human IgG1/kappa
B11: Sh24C05-48 (antibody, human IgG1, kappa)
heavy: not shown
light: B5 light with L4M, F10S, E70D
notes: Humanized, human IgG1/kappa
B12: Sh24C05-41 (antibody, human IgG1, kappa, V domains shown)
VH: B2 VH with L11V, K13Q, G16R, I37V, S49A, A75S, S78T, N84S
VL: B2 VL with M4L, S10F, F36Y, S46L, D70E
notes: Humanized, human IgG1/kappa
B13: Sh24C05-46 (antibody, human IgG1, kappa, V domains shown)
VH: B2 VH with Q1E, V5L, K13Q, I37V, A75S, S78T
VL: B2 VL with F36Y, S46L
notes: Humanized, human IgG1/kappa

Where a chain is given by its changes, count along the chain named.

One experiment has as its target T1, recombinant human ErbB3 monomeric protein (cleaved rhErbB3) (human, UniProt P21860 20-643, limits assumed).
T1 construct: Monomer made by protease cleavage of the Fc fusion; also called Monomeric ErbB3
In words: SPR Biacore 37 C; supernatant antibody captured on anti-human Fc, cleaved rhErbB3 injected. How it is done: (§1) The analyses were performed at 37° C. using PBS (Invitrogen, Catalog No. 14040-133) containing 0.05% surfactant P20 (Biacore, Catalog No. BR-1000-54) as running buffer.
(§2) The antibodies were captured in individual flow cells at a flow rate of […]. Injection time was varied for each antibody to yield an Rₘₐₓ between 30 and 60 RU. […] The dissociation phase was monitored for up to 1200 seconds. The surface was then regenerated with two 60 second injections of Glycine pH 2.25 (made from Glycine pH 2.0 (Biacore, Catalog No. BR-1003-55) and pH 2.5 (Biacore, Catalog No. BR-1003-56)) at […].
Kinetic parameters were determined using the kinetic function of the BIAevaluation software (Biacore) with double reference subtraction. Kinetic parameters for each antibody, kₐ (association rate constant), kd (dissociation rate constant) and KD (equilibrium dissociation constant) were determined.
(In general: Surface plasmon resonance follows binding to a sensor surface in real time, without labels.)
As for B1, the Kd is 178 pM, the koff stood at 0.000448 s⁻¹ and the kon is 2.52e+06 M⁻¹ s⁻¹.

B2: the Kd amounted to 175 pM, the koff is 0.000459 s⁻¹ and the kon amounted to 2.63e+06 M⁻¹ s⁻¹.

B3: the Kd worked out at 150 pM, the koff was determined as 0.000417 s⁻¹ and the kon stood at 2.79e+06 M⁻¹ s⁻¹.

As for B4, the Kd was determined as 503 pM, the koff was 0.0106 s⁻¹ and the on-rate constant (kon) turned out to be 2.11e+07 M⁻¹ s⁻¹.

Consider B5, for which the Kd stood at 927 pM, the koff is 0.00682 s⁻¹ and the on-rate constant (kon) turned out to be 7.35e+06 M⁻¹ s⁻¹.

On to B6, for which the Kd stood at 86.5 pM, the koff is 0.000292 s⁻¹ and the kon stood at 3.47e+06 M⁻¹ s⁻¹.

Turning to B7, the Kd is 553 pM, the off-rate (koff) was 0.00441 s⁻¹ and the kon stood at 7.98e+06 M⁻¹ s⁻¹.

As for B8, the Kd is 644 pM, the koff came to 0.00512 s⁻¹ and the kon came to 7.96e+06 M⁻¹ s⁻¹.

B9: the Kd turned out to be 416 pM, the koff was 0.0017 s⁻¹ and the kon came to 4.08e+06 M⁻¹ s⁻¹.

For B10, the Kd was 582 pM, the koff turned out to be 0.00358 s⁻¹ and the kon amounted to 6.16e+06 M⁻¹ s⁻¹.

For B11, the Kd came out at 562 pM, the koff stood at 0.0049 s⁻¹ and the kon turned out to be 8.72e+06 M⁻¹ s⁻¹.

Turning to B12, the Kd is 669 pM, the koff was 0.0121 s⁻¹ and the kon was 1.81e+07 M⁻¹ s⁻¹.

For the molecule B13, the Kd was 551 pM, the koff came to 0.0044 s⁻¹ and the kon was determined as 7.99e+06 M⁻¹ s⁻¹.

The target of the next experiment is T1, recombinant human ErbB3 monomeric …. Briefly: SPR Biacore 37 C; purified antibody captured on anti-human Fc, cleaved rhErbB3 0.3125-5.0 nM. How it is done:
as §1, §2
The binding affinities and kinetics of certain purified monoclonal antibodies were also determined. To further characterize certain antibodies, the surface plasmon resonance experiments described above were conducted using concentrations of cleaved rhErbB3 between 0.3125 nM and 5.0 nM (a 2-fold serial dilution).
On to B1, for which the Kd was found to be 140 pM, the koff came to 0.00044 s⁻¹ and the kon came out at 3.5e+06 M⁻¹ s⁻¹.

B2: the Kd came to 130 pM, the koff stood at 0.0005 s⁻¹ and the kon was determined as 4e+06 M⁻¹ s⁻¹.

Take B6: the Kd is 63 pM, the koff is 0.00028 s⁻¹ and the kon amounted to 4.7e+06 M⁻¹ s⁻¹.

What is called Kd is the equilibrium constant for the complex coming apart. The term koff denotes the rate constant with which the complex falls apart. By kon is commonly meant the second-order rate constant of association.
